{
  "source": "patent US20120302734A1",
  "about": "(COMMONWEALTH SCIENTIFIC AND INDUSTRIAL RESEARCH ORGANISATION, published 2012)",
  "proteins": {"B1": {"name": "Honeybee silk protein Xenospira3 (AmelF3), recombinant, without signal peptide (other)", "chain": "GVEEFKSSATEEVISKNLEVDLLKNVDTSAKRRENGAPVLGKNTLQSLEKIKTSASVNAKAAAVVKASALALAEAYLRASALSAAASAKAAAALKNAQQAQLNAQEKSLAALKAQSEEEAASARANAATAATQSALERAQASSRLATVAQNVASDLQKRTSTKAAAEAAATLRQLQDAERTKWSANAALEVSAAAAAAETKTTASSEAANAAAKKAAAIASDADGAERSASTEAQSAAKIESVAAAEGSANSASEDSRAAQLEASTAARANVAAAVGDGAIIGLGEEAGAAAQLLAQAKALAEVSSKSENIEDKKF", "notes": "The cloning primer may add an N-terminal Met"}},
  "biological_target": "the molecule itself",
  "experiment": "dynamic light scattering after SDS removal, against 9.2 nm for the monomeric SDS-protein solution; self-association",
  "protocol": "The AmelF3 honeybee silk protein was expressed into the inclusion bodies of E. coli. AmelF3 inclusion bodies were unfolded using equivalent dry weight of the detergent sodium dodecyl sulphate (SDS) to generate 2-4% monomeric protein solutions. Dynamic light scattering (DLS) measured the hydrodynamic diameter of particles in the protein-detergent solution diluted ten-fold in 100 mM NaCl as 9.2+/−0.1 nm (peak containing 98.2% of particle volume). The diameter of SDS micelles in 3% SDS solutions without protein under the same experimental conditions was a single peak at 5.5+/−0.2 nm. No SDS micelles were detected in the SDS—protein solutions confirming that the majority of the SDS was bound to the protein.\nProteins were refolded by removing SDS using KCl. […] The protein solutions were dialysed against water to reduce salt levels then concentrated by dialysis against PEG8000, resulting in 3-4% protein and 0.2-0.4% SDS concentration.",
  "data": [
    {"protein": "B1", "values": [
      {"measurement": "binding result", "value": "binds"}
    ]}
  ]
}
